Test [1] concerns the target T1, human plasma kallikrein (human, UniProt P03952 20-390; P03952 391-638).
T1 construct: also called pKal; human pKal
Description: ELISA; signal on biotinylated plasma kallikrein divided by signal on streptavidin background. The text has this: Abbreviations used: “T/B” is the ELISA signal obtained using of the “target” (biotinylated plasma kallikrein) divided by the ELISA signal of the “background” (streptavidin); both of which were coated on microtiter plates. “nd” is not determined. The symbol “q” refers to the amber suppressible stop codon (TAG), which is translated as glutamine (Q) in strains of E. coli such as the TG1 cells that were used to express the Fab fragments.
For orientation: ELISA stands for enzyme-linked immunosorbent assay.
T1 sequence (P03952 20-390, chain 1 of 2): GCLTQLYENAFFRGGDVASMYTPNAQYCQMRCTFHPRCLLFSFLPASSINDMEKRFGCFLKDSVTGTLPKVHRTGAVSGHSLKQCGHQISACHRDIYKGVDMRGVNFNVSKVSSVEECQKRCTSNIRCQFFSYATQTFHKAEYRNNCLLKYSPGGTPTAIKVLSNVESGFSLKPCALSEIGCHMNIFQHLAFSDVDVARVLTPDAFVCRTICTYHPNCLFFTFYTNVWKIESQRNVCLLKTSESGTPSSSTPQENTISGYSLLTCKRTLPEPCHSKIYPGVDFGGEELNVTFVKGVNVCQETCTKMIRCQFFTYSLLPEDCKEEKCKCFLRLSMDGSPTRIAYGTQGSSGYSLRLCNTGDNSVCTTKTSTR
T1 sequence (P03952 391-638, chain 2 of 2): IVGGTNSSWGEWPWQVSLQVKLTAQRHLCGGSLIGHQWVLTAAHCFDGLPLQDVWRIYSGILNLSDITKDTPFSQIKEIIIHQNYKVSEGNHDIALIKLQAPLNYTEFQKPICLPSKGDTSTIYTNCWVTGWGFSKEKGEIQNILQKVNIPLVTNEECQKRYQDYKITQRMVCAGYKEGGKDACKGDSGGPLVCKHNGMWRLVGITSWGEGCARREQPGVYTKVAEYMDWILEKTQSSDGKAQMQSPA

Test [2] concerns the target T1, human plasma kallikrein. Briefly: apparent Ki (Ki,app), inhibition of human pKal activity.
Test [3] addresses T2, human plasma kallikrein (human, UniProt P03952 20-390; P03952 391-638). Briefly: cell-based or functional assay.
T2 sequence (P03952 20-390, chain 1 of 2): as the sequence (P03952 20-390, chain 1 of 2) above
T2 sequence (P03952 391-638, chain 2 of 2): as the sequence (P03952 391-638, chain 2 of 2) above
The target in test [4] is T2, human plasma kallikrein. Description: apparent Ki (Ki,app), human pKal.
Test [5] concerns the target T3, mouse plasma kallikrein (mouse, UniProt P26262 20-638).
T3 construct: mature; Source of the mouse enzyme used for Ki,app is not described; also called mouse pKal
Briefly: apparent Ki (Ki,app), mouse pKal.

Bounds are passed on as bounds.

T3 sequence (P26262 20-638 limits assumed): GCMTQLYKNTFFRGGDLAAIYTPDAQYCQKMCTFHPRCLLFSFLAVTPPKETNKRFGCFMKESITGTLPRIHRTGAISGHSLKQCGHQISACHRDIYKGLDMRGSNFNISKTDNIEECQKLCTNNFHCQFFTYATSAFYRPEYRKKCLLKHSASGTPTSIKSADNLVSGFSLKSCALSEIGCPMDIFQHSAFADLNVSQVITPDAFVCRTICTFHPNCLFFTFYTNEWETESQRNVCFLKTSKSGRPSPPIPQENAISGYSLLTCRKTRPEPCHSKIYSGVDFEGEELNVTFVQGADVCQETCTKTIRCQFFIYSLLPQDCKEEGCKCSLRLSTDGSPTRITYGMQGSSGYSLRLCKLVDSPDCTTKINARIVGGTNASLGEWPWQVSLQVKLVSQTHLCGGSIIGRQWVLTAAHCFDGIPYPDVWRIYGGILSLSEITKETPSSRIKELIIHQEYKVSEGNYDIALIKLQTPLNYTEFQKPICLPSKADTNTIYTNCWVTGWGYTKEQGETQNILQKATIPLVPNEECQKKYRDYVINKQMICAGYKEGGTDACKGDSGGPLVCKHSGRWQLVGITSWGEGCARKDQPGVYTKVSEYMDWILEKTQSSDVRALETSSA

B1: M76-D01 (antibody, V domains shown)
VH: EVQLLESGGGLVQPGGSLRLSCAASGFTFSFYAMHWVRQAPGKGLEWVSGIVPSGGRTHYADSVKSRFTISRDNSKNTLYLQMNSLRAEDTAVYYCATDSSGSPNPLFDYWGQGTLVTVSS
VL: DIVMTQTPPSLPVNPGEPASISCRSSQSLSDDGNTYLDWYLQRPGQSPQLLIHTLSYRASGVPDRFSGSGSGTDFTLKISRVEAEDVGVYYCMQGTHWPPTFGQGTKVEIK
Take B1: the “ELISA (T/B)” value in test [1] was determined as 11.2 T/B ratio. For the same molecule, the Ki in test [2] was below 100 nM.

B2: M137-E12 (antibody, V domains shown)
VH: EVQLLESGGGLVQPGGSLRLSCAASGFTFSDYRMQWVRQAPGKGLEWVSVIVPSGGNTMYADSVKGRFTISRDNSKNTLYLQMNSLRAEDTAVYYCARGGPGSSIAARPAPTGYYGMDVWGQGTTVTVSS
VL: QSVLIQPPSVSGIPGQRVTISCSGNNSNFGSNTVTWYQQLPGTAPKLLIYSDSRRPSGVPDRFSGSRSDTSASLAISGLQSEDEAEYHCAAWDDSLNGVFGGGTKLTVL
Take B2: the “ELISA (T/B)” value in test [1] worked out at 4.5 T/B ratio. Further, in test [2], the Ki worked out at 79 nM.

B3: M207-A04 (Fab, V domains shown)
VH: EVQLLESGGGLVQPGGSLRLSCAASGFTFSHYLMTWVRQAPGKGLEWVSYISPSGGHTIYADSVKGRFTISRDNSKNTLYLQMNSLRAEDTAVYYCARVARGIAARSRTSYFDYWGQGTLVTVSS
VL: DIQMTQSPGTLSLSPGERATLSCRTSQFVNSNYLAWYQQTPGQAPRLLIYGASSRATGIPDRFSGTGYGTDFTLTISRLEPEDYGTYYCQQSSRTPWTFGQGTRVEIK
Consider B3, for which the “% inhibition at 10 nM” value in test [3] was found to be 90.9%.

B4: M209-H03 (Fab, V domains shown)
VH: EVQLLESGGGLVQPGGSLRLSCAASGFTFSHYLMTWVRQAPSKGLEWVSYISPSGGHTIYADSVKGRFTISRDNSKNTLYLQMNSLRAEDTAVYYCARVAQGIAARSRTTQFDYWGQGTLVTVSS
VL: DIQMTQSPGTLSLSPGERATLSCRTSQFVNSNYLAWYQQTPGQAPRLLIYGASSRATGIPDRFSGTGYGTDFTLTISRLEPEDYGTYYCQQSSRTPWTFGQGTRVEIK
Consider B4, for which the “% inhibition at 10 nM” value in test [3] came out at 82.6%.

B5: M209-H07 (Fab, V domains shown)
VH: EVQLLESGGGLVQPGGSLRLSCAASGFTFSHYLMTWVRQAPGKGLEWVSYISPSGGHTIYADSVKGRFTISRDNSKNTLYLQMNSLRAEDTAVYYCARVARGIAARQRTSYYDYWGQGTLVTVSS
VL: DIQMTQSPGTLSLSPGERATLSCRTSQFVNSNYLAWYQQTPGQAPRLLIYGADDRATGIPDRFSGTGYGTDFTLTISRLEPEDYGTYYCQQSSRTPWTFGQGTRVEIK
B5: the “% inhibition at 10 nM” value in test [3] stood at 76.1%.

B6: M209-D12 (Fab, V domains shown)
VH: EVQLLESGGGLVQPGGSLRLSCAASGFTFSHYLMTWVRQAPSKGLEWVSYISPSGGHTIYADSVKGRFTISRDNSKNTLYLQMNSLRAEDTAVYYCATVARGIAARSRTSYFDQWGQGTLVTVSS
VL: DIQMTQSPGTLSLSPGERATLSCRTSQFVNSNYLAWYQQTPGQAPRLLIYGASSRATGIPDRFSGTGYGTDFTLTISRLEPEDYGTYYCQQSSRTPWTFGQGTRVEIK
Consider B6, for which the “% inhibition at 10 nM” value in test [3] was 85.4%.

B7: M209-D02 (Fab, V domains shown)
VH: EVQLLESGGGLVQPGGSLRLSCAASGFTFSHYLMTWVRQAPGKGLEWVSYISPSGGHTIYADSVKGRFTISRDNSKNTLYLQMNSLRAEDTAVYYCARVARGITARSRTSYFDDWGQGTLVTVSS
VL: DIQMTQSPGTLSLSPGERATLSCRTSQFVNSNYLAWYQQTPSQAPRLLIYGASSRATGIPDRFSGTGYGTDFTLTISRLEPEDYGTYYCQQSSRTPWTFGQGTRVEIK
For the molecule B7, the “% inhibition at 10 nM” value in test [3] worked out at 74.7%.

B8: M209-B11 (Fab, V domains shown)
VH: EVQLLESGGGLVQPGGSLRLSCAASGFTFSHYLMTWVRQAPGKGLEWVSYISPSGGHTIYADSVKGRFTISRDNSKNTLYLQMNSLRAEDTAVYYCARVARGIAARSRTSYIDQWGQGTLVTVSS
VL: DIQMTQSPGTLSLSPGERATLSCRTSQFVNSNYLAWYQQTPGQAPRLLIYGASSRATGIPDRFSGTGYGTDFTLTISRLEPEDYGTYYCQQSSRTPWTFGQGTRVEIK
As to B8, the “% inhibition at 10 nM” value in test [3] is 87.3%.

B9: M29-E09 (antibody, V domains shown)
VH: EVQLLESGGGLVQPGGSLRLSCAASGFTFSWYEMGWVRQAPGKGLEWVSSIYSSGGGTMYADSVKGRFTISRDNSKNTLYLQMNSLRAEDTAVYYCARNPQYSGYDRSLSDGAFDIWGQGTMVTVSS
VL: QYELTQPPSVSVSPSQTATITCSGDNLGNKYNSWYQQKPGQSPLLVIYQDTKRPSAIPERFSGSNSGNTAILTISGTQAMDEADYYCQAWDGNVVFGGGTKLTVL
As to B9, in test [1], the “ELISA (T/B)” value was 28.8 T/B ratio. In addition, the Ki in test [2] came to 11 nM.

B10: M29-D09 (antibody, V domains shown)
VH: EVQLLESGGGLVQPGGSLRLSCAASGFTFSWYTMVWVRQAPGKGLEWVSYIYPSGGATFYADSVKGRFTISRDNSKNTLYLQMNSLRAEDTAVYYCAMGSYDYIWGFYSDHWGQGTLVTVSS
VL: QSALTQPPTVSVSPGQTARITCSGNKLGDKYVAWYQQKPGQSPMLVIYQDTKRPSAIPERFSGSNSANTATLSISGTQALDEADYYCQAWDSSIVIFGGGTRLTVL
notes: HC as printed runs into CH1
On to B10, for which the Ki in test [4] is 0.7 nM.

B11: M6-D09 (antibody, V domains shown)
VH: EVQLLESGGGLVQPGGSLRLSCAASGFTFSFYYMVWVRQAPGKGLEWVSVIYPSGGITVYADSVKGRFTISRDNSKNTLYLQMNSLRAEDTAVYYCARDKWAVMPPYYYYAMDVWGQGTTVTVSS
VL: DIQMTQSPSSLSASVSDRVTITCRASQSIRNYLNWYQQKPSKAPNLLIYAASTLQSGVPARFSGSGSGTDFTLTISSLQPEDFATYYCQQLSGYPHTFGQGTKLEIK
notes: HC as printed runs into CH1
For the molecule B11, the Ki in test [5] amounted to 3.9 nM; in test [4] it was 5.9 nM.

Usually % inhibition stands for the relative decrease from the control value, in per cent. A higher % inhibition goes with strong suppression.

These data come from US20100183625A1 (published 2010).
